In paper doi:10.1101/2020.09.18.301952:

Target: stabilized soluble SARS-CoV-2 S protein trimer (SARS-CoV-2) (UniProt P0DTC2)
Experiment: cryo-EM structure

Question: With “monomeric soluble ACE2 (ACE2_(615)) (from UniProt Q9BYF1 18-615) (domain or fragment)” as the substance, how does the stoichiometry N (ACE2 per S trimer) read?
Answer: 3
